Key:
[1] = Fibrillation kinetics by Thioflavin-T (ThioT) fluorescence measurement; assay type: physicochemical; conditions: 100 μM peptide
Description: The fibrillation kinetics of hCT, rhCT and phCT was monitored by measuring the increase in fluorescence intensity upon thioflavin T (ThioT) binding to peptide fibrils. The ThioT stock solution (2.5 mM) was prepared in di-water and diluted 10-fold with buffer to give a working solution (250 μM). […] The peptide solution was quickly transferred to a 96-well microtiter plate and placed in a Synergy Neo2 Multi-Detection microplate reader (BioTek Instruments, Winooski, Vt.). 5 μL of ThioT working solution (250 μM) was added to 245 μL of peptide solution in each well to give a final ThioT concentration of 5 μM per well. At each time point, six replicate measurements were performed for each sample. Fibrillation was carried out for 12 or 24 h at 25° C. with continuous shaking at 731 cpm. The fluorescence intensity of ThioT was bottom-read at an interval of 10 or 15 min, at excitation and emission wavelengths of 440 nm and 482 nm, respectively.
The ThioT fluorescence data were fitted to the Boltzmann sigmoidal function as given below, using GraphPad Prism version 7.03 (GraphPad Software, La Jolla, Calif.).
where A1 is the minimum signal, A2 is the maximum signal, xo is the time at which the change in signal is 50% (t50) and dx′ is the slope of growth phase.^1 The lag time was determined either by sigmoidal fit to the fibrillation kinetics curve or using onset point determination. In sigmoidal fits, the lag time was determined as xo−2 dx′ using parameters obtained from nonlinear fit of the data to Eq. 1. […] In cases where sigmoid curve fitting could not be achieved, the t50 was estimated from the raw data as the time when the signal intensity reached half of the observed maximum value.

[2] = Fibrillation kinetics by turbidity measurement (UV absorbance at 340 nm); assay type: physicochemical; conditions: 100 μM peptide, 731 cpm
Description: Fibrillation kinetics of hCT, rhCT and phCT was followed by measuring the increase in solution turbidity due to formation of soluble oligomeric species and insoluble fibrils. […] At each time point, six replicate measurements were performed for each sample. Fibrillation was carried out for 12 or 24 h at 25° C. with continuous shaking at 731 cpm. Solution turbidity was measured by UV absorbance at 340 nm at 10 or 15-min read intervals. The turbidity data was fitted to the Boltzmann sigmoidal function (Eq. 1) and analyzed as described above.

[3] = Secondary structure change during fibrillation by CD spectroscopy; assay type: physicochemical; conditions: 0 to 1440 min, 100 μM peptide, pH 7.4, 25° C., 731 cpm
Description: Changes in the secondary structure of hCT and phCT were monitored by CD spectroscopy using a Jasco J-815 spectrometer (JASCO Analytical Instruments, Easton, Md.). […] At predetermined time intervals, samples were withdrawn for CD analysis. CD spectra were recorded in a quartz cuvette with 1 mm pathlength, scanned from 190 nm to 260 nm in the far UV range, at a scan speed of 50 nm/min at 20° C. Each spectrum was reported as an average of three scans.

[4] = Visual inspection of 96-well plates after fibrillation; assay type: physicochemical; conditions: after fibrillation in 96-well plates, 24 h
[5] = 20 mM sodium phosphate buffer pH 7.4, 25° C., continuous shaking at 731 cpm, n=6, mean±SD
[6] = 20 mM sodium phosphate buffer pH 7.4, 25° C., n=6, mean±SD
[7] = after 360 min of fibrillation time
[8] = after 1440 min of fibrillation, pepsin digestion

## human calcitonin [hCT]
[1]; [5]
  lag time of fibrillation, ThioT fluorescence: 172 ± 15 min
  t50 of fibrillation, ThioT fluorescence: 236 ± 8 min
[1]; 20 mM sodium phosphate buffer pH 7.4, 25° C., continuous shaking at 731 cpm, n=6, mean±SD, listed as native hCT
  lag time of fibrillation, ThioT fluorescence: 172 ± 15 min
[1]; pH 7.4, 25° C., 731 cpm
  change in ThioT fluorescence with time: an increase in ThioT fluorescence was observed
[2]; [6]
  lag time of fibrillation, turbidity: 198 ± 20 min
  t50 of fibrillation, turbidity: 257 ± 15 min
[2]; pH 7.4, 25° C.
  change in turbidity signal: An increase in solution turbidity was also observed
[3]
  change of CD signal during fibrillation: complete loss in signal
[7]
  deuterium incorporation, fragment 1-8: 16%
  deuterium incorporation, fragment 1-11: 13%
  deuterium incorporation, fragment 12-19: 22%
After 1440 min of fibrillation
  percent deuterium uptake, intact level: 28%
[8]
  deuterium uptake, fragment 20-32: 51%
  deuterium uptake, fragment 26-32: 54%
Fibrillation time t=0 min
  % D (percent deuterium uptake), intact level, Peak II: 68%
Start of fibrillation
  deuterium uptake, C-terminal fragments 20-32 and 26-32, initial value: ~60%
[4]
  appearance on visual inspection: solid dense deposits

From US20230151073A1, “FIBRILLATION RESISTANT CALCITONIN PEPTIDES AND USES THEREOF” (Purdue Research Foundation, priority 2020, published 2023)
